Data as given in US5574018A, “Conjugates of vitamin B12 and proteins” (Amgen Inc., priority 1994, dated 1996).
Blank lines part the entries; values can stand above or below the molecule they belong to.

Legend:
Porcine IF = biological target: T1, Porcine IF (Sus scrofa, UniProt A0A8D1ENZ1); assay: Intrinsic factor binding affinity, competition binding assay with 57Co-cyanocobalamin (Scatchard); conditions: for Kd: association constant, porcine IF, conjugate 123 nM, 30 min
T1 construct: purchased Sigma Chemical Company, St. Louis, Mo
Experimental: The binding affinity of conjugates of VB12 and therapeutic proteins to intrinsic factor (IF) was determined using a competition binding assay based on the procedure described by Mathan et al. in the Journal of Clinical Investigation, Volume 54, pages 598-608 (1974). The assay was conducted in phosphate buffered saline (PBS) containing 1 mM calcium chloride, 0.5 mM magnesium chloride and 1% by weight of bovine serum albumin (BSA) devoid of IF and cyanocobalamin (Sigma Chemical Company, St. Louis, Mo.). Porcine IF (final concentration 1.845 nM) was added to a large excess of the VB12 -protein conjugate (123 nM), together with a range of concentrations of ^57 Co-cyanocobalamin ([…] to 12.3 nM), specific activity 10-20 μCi/μg, in a final volume of 600 μl of PBS. The solution was vortexed and incubated at room temperature for thirty minutes, before adding 1 ml of freshly prepared dextran-coated charcoal (0.5% by weight of charcoal, 0.1% by weight of dextran in PBS) at 4° C. After incubation for ten minutes, the mixture was centrifuged for fifteen minutes at 1000×G (2500 rpm) and 4° C. in a IEC Centra-8R benchtop centrifuge, VWR Scientific, South Plainfield, N.J. The supernatant was decanted from the resulting pellet and assayed in a Cobra 2000 Gamma counter (Hewlett-Packard, Palo Alto, Calif.) to determine the amount of bound ^57 Co-cyanocobalamin.
The ratio of bound to free ^57 Co-cyanocobalamin versus the bound concentration of ^57 Co-cyanocobalamin was plotted according to the method of Scatchard, Annals of the New York Academy of Science, Volume 51, pages 660-672 (1949).
-Slope=-Kapp =-KL /(1+Kc [Lf ])
Kc =binding affinity of conjugate
KL =binding affinity of cyanocobalamin
[Lf ]=concentration of unbound conjugate
The use of a large excess of the conjugate permitted the value of [Lf ] to be treated as a constant (123 nM).

[1] = system: exhypoxic polycythemic mice; assay: In vivo exhypoxic polycythemic mouse assay of VB12-EPO conjugates; conditions: i.p., vs EPO
Experimental: The hematopoietic activity of EPO after conjugation to 5'-O-[glutaroyl]cyanocobalamin was determined in vivo in exhypoxic polycythemic mice using the procedure of Cotes and Bingham described in Nature, Volume 191, pages 1065-1067 (1961).
The dilution of the complexes prior to intraperitoneal (i.p.) injection was based on the protein content derived from the A280 of the sample.

[2] = Stupperich and Nexo 1991; cited from earlier work
[3] = Binding analysis of recombinant rat IF (rrIF)
mouse bone marrow cells = assay: In vitro thymidine uptake assay of VB12-G-CSF conjugates; assay type: cell-based; conditions: for Biological Activity of Conjugate, % activity compared to nonconjugated protein: vs G-CSF
Experimental: The bioactivity of VB12 -G-CSF in vitro after conjugation to 5'-O-[glutaroyl]cyanocobalamin was determined by measuring the stimulated in vitro uptake of ^3 H-thymidine into mouse bone marrow cells.
Bone marrow cells were collected from the hind legs of female Balb/C mice by flushing the bone with PBS. The cells were purified on a Ficoll-Paque density gradient (Pharmacia) and cultured in McCoys' 5A medium with 10% fetal bovine serum (FBS), 10 mM sodium pyruvate, 1×minimum essential medium (MEM) amino acids, 40 micromolar (μM) of essential amino acids, 0.04% by weight of sodium bicarbonate, 1×MEM vitamin solution, 10 mM L-glutamine and 0.005% by weight of gentamicin sulfate. After incubation for two hours at 37° C. under a 5% carbon dioxide-containing atmosphere, non-adherent cells were collected in the supernatant and the number of viable cells was counted in a hemocytometer.
A standard curve was prepared over a range from 0.07 to 1500 Units of G-CSF per milliliter (U/ml), and the complexes were diluted to about 0.3 to 30 U/ml prior to being assayed. To a 96-well plate was added, in triplicate, 100 μl of the standard or test material and 100 μl of culture medium containing 4×10^4 non-adherent mouse bone marrow cells. After incubating the plates for sixty eight hours at 37° C. under a 5% carbon dioxide atmosphere, 0.5 μCi of thymidine [methyl-3H], 20 Ci/mmol (NEN, Boston, Mass.) was added to each well. The plates were incubated as before for an additional five hours. The cells were collected on filter paper, rinsed with water (ten times) and ethanol (one time), and then counted in Biofluor scintillation fluid in a beta plate scintillation counter (LKB, Piscataway, N.J., Model 1205-001).
The bioactivity of the test material, in Units per milligram (U/mg), was determined from the standard curve of the G-CSF stimulated uptake of thymidine [methyl-^3 H].

T1 sequence (A0A8D1ENZ1 29-425): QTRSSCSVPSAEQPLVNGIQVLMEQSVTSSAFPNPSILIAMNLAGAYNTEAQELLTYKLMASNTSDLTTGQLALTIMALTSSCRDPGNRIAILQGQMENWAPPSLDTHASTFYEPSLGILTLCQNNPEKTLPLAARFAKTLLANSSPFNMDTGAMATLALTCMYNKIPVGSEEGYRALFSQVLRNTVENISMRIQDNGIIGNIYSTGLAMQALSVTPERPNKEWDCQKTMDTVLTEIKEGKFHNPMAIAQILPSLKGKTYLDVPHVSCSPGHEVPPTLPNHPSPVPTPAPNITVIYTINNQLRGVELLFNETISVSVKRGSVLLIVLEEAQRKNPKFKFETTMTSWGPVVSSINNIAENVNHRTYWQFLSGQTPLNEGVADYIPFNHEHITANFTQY

binding affinity (Ka) of rrIF [3]: 8.58e+09 M⁻¹
B1: rrIF: recombinant form of rat IF produced in Chinese hamster ovary cells (protein, UniProt P17267 19-417, looked up)
Cobalamin binding intrinsic …: STRAQRSCSVPPDQQPWVNGLQLLMENSVTESDLPNPSILIAMNLASTYNLEAQKLLTYQLMASDSADLTNGQLALTIMALTSSCRDPGSKVSILQKNMESWTPSNLGAESSSFYGPALAILALCQKNSEATLPIAVRFAKTLMMESSPFSVDTGAVATLALTCMYNRIPVGSQENYRDLFGQALKVIVDNISLRIKADGIIGDIYSTGLAMQALSVTPEQPTKEWDCEKTMYTILKEIKQGKFQNPMSIAQILPSLKGKTYLDVPQVTCGPDHEVPPTLTDYPTPVPTSISNITVIYTINNQLRGVDLLFNVTIEVSVKSGSVLLAVLEEAQRRNHMFKFETTMTSWGLIVSSINNIAENVKHKTYWEFLSGKTPLGEGVAYYIPFNYEHITANFTQY

Kd (Porcine IF): 1.89 nM
B3: Example 10: conjugate with G-CSF via N-hydroxysuccinimidyl ester of 5'-O-[glutaroyl]cyanocobalamin-8-aminocaprylic acid (conjugate, UniProt P09919 31-207, looked up)
Granulocyte …: TPLGPASSLPQSFLLKCLEQVRKIQGDGAALQEKLVSECATYKLCHPEELVLLGHSLGIPWAPLSSCPSQALQLAGCLSQLHSGLFLYQGLLQALEGISPELGPTLDTLQLDVADFATTIWQQMEELGMAPALQPTQGAMPAFASAFQRRAGGVLVASHLQSFLEVSYRVLRHLAQP
modifications: cyanocobalamin conjugate via aminocaprylic linker
notes: conjugate with G-CSF via N-hydroxysuccinimidyl ester of 5'-O-[glutaroyl]cyanocobalamin-8-aminocaprylic acid
Biological Activity of Conjugate, % activity compared to nonconjugated protein (mouse bone marrow cells): 60%

retention of non-conjugated VB12 binding affinity (Porcine IF): 1.6%
Kd (Porcine IF): 10.8 nM
B4: Example 8: conjugate of 5'-O-[glutaroyl]cyanocobalamin with a polyethylene glycol derivative of G-CSF (conjugate, UniProt P09919 31-207, looked up)
Granulocyte …: TPLGPASSLPQSFLLKCLEQVRKIQGDGAALQEKLVSECATYKLCHPEELVLLGHSLGIPWAPLSSCPSQALQLAGCLSQLHSGLFLYQGLLQALEGISPELGPTLDTLQLDVADFATTIWQQMEELGMAPALQPTQGAMPAFASAFQRRAGGVLVASHLQSFLEVSYRVLRHLAQP
modifications: PEG; cyanocobalamin conjugate
notes: conjugate of 5'-O-[glutaroyl]cyanocobalamin with a polyethylene glycol derivative of G-CSF
Biological Activity of Conjugate, % of G-CSF (mouse bone marrow cells): 4.4 % of G-CSF
Biological Activity of Conjugate, % of PEG-G-CSF (mouse bone marrow cells): 38 % of PEG-G-CSF

Continued, molecule first:

Molecule: 5'-O-[glutaroyl]-cyanocobalamin [Example 1]
Kd (Porcine IF): 1.35 nM

Molecule: Example 13: conjugate of 5'-O-[glutaroyl]cyanocobalamin-adipic-1,6-dihydrazide with periodate-treated EPO (through sialic acids)
Biological Activity of Conjugate, % activity compared to nonconjugated protein [1]: 33 ± 14%

Molecule: native human IF: native human intrinsic factor, literature value
binding affinity (Ka) of native human IF [2]: 2e+10 M⁻¹

B2: Example 2: conjugate of 5'-O-[glutaroyl]cyanocobalamin with G-CSF via the N-hydroxysuccinimide derivative (conjugate, UniProt P09919 31-207, looked up)
Granulocyte …: TPLGPASSLPQSFLLKCLEQVRKIQGDGAALQEKLVSECATYKLCHPEELVLLGHSLGIPWAPLSSCPSQALQLAGCLSQLHSGLFLYQGLLQALEGISPELGPTLDTLQLDVADFATTIWQQMEELGMAPALQPTQGAMPAFASAFQRRAGGVLVASHLQSFLEVSYRVLRHLAQP
modifications: cyanocobalamin conjugate
notes: conjugate of 5'-O-[glutaroyl]cyanocobalamin with G-CSF via the N-hydroxysuccinimide derivative
Kd (Porcine IF): 2.22 nM

B5: Example 7: conjugate of 5'-O-[glutaroyl]cyanocobalamin with G-CSF via 12-aminododecylamido-dithiopyridylpropionate (conjugate, UniProt P09919 31-207, looked up)
Granulocyte …: TPLGPASSLPQSFLLKCLEQVRKIQGDGAALQEKLVSECATYKLCHPEELVLLGHSLGIPWAPLSSCPSQALQLAGCLSQLHSGLFLYQGLLQALEGISPELGPTLDTLQLDVADFATTIWQQMEELGMAPALQPTQGAMPAFASAFQRRAGGVLVASHLQSFLEVSYRVLRHLAQP
modifications: cyanocobalamin conjugate via disulfide linker
notes: conjugate of 5'-O-[glutaroyl]cyanocobalamin with G-CSF via 12-aminododecylamido-dithiopyridylpropionate
Kd (Porcine IF): 4 nM
Biological Activity of Conjugate, % activity compared to nonconjugated protein (mouse bone marrow cells): 33%
